Experiments:
[1] = target: T1, Fyn SH3 (Homo sapiens, UniProt P06241); experiment: ITC
[2] = target: T1, Fyn SH3; experiment: NMR titration

T1 sequence (P06241 79-146): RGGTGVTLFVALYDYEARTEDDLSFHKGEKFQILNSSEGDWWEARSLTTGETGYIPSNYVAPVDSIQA

Binder | Kd [1] [µM] | Kd [2] [µM]
QDGRPPQTAAREATS [Tau 241-255] |  | 327
ERPGSKEEVDEDRDV [Tau 210-224] |  | 163

Next, values leading:

Kd [1] [µM] | Kd [2] [µM] | Binder
11 |  | Tau 151-243 (protein) SGMPGAPLLPEGPREATRQPSGTGPEDTEGGRHAPELLKHQLLGDLHQEGPPLKGAGGKERPGSKEEVDEDRDVDESSPQDSPPSKASPAQDG
 | 127 | PSGTGPEDTEGGRHA [Tau 170-184]
